Source: PMC10202959, “A superior extracellular matrix binding motif to enhance the regenerative activity and safety of therapeutic proteins” (NPJ Regenerative Medicine, 2023)

B1: human fibrinogen (complex)
chain 1: ADSGEGDFLAEGGGVRGPRVVERHQSACKDSDWPFCSDEDWNYKCPSGCRMKGLIDEVNQDFTNRINKLKNSLFEYQKNNKDSHSLTTNIMEILRGDFSSANNRDNTYNRVSEDLRSRIEVLKRKVIEKVQHIQLLQKNVRAQLVDMKRLEVDIDIKIRSCRGSCSRALAREVDLKDYEDQQKQLEQVIAKDLLPSRDRQHLPLIKMKPVPDLVPGNFKSQLQKVPPEWKALTDMPQMRMELERPGGNEITRGGSTSYGTGSETESPRNPSSAGSWNSGSSGPGSTGNRNPGSSGTGGTATWKPGSSGPGSTGSWNSGSSGTGSTGNQNPGSPRPGSTGTWNPGSSERGSAGHWTSESSVSGSTGQWHSESGSFRPDSPGSGNARPNNPDWGTFEEVSGNVSPGTRREYHTEKLVTSKGDKELRTGKEKVTSGSTTTTRRSCSKTVTKTVIGPDGHKEVTKEVVTSEDGSDCPEAMDLGTLSGIGTLDGFRHRHPDEAAFFDTASTGKTFPGFFSPMLGEFVSETESRGSESGIFTNTKESSSHHPGIAEFPSRGKSSSYSKQFTSSTSYNRGDSTFESKSYKMADEAGSEADHEGTHSTKRGHAKSRPV
chain 2: QGVNDNEEGFFSARGHRPLDKKREEAPSLRPAPPPISGGGYRARPAKAAATQKKVERKAPDAGGCLHADPDLGVLCPTGCQLQEALLQQERPIRNSVDELNNNVEAVSQTSSSSFQYMYLLKDLWQKRQKQVKDNENVVNEYSSELEKHQLYIDETVNSNIPTNLRVLRSILENLRSKIQKLESDVSAQMEYCRTPCTVSCNIPVVSGKECEEIIRKGGETSEMYLIQPDSSVKPYRVYCDMNTENGGWTVIQNRQDGSVDFGRKWDPYKQGFGNVATNTDGKNYCGLPGEYWLGNDKISQLTRMGPTELLIEMEDWKGDKVKAHYGGFTVQNEANKYQISVNKYRGTAGNALMDGASQLMGENRTMTIHNGMFFSTYDRDNDGWLTSDPRKQCSKEDGGGWWYNRCHAANPNGRYYWGGQYTWDMAKHGTDDGVVWMNWKGSWYSMRKMSMKIRPFFPQQ
chain 3: YVATRDNCCILDERFGSYCPTTCGIADFLSTYQTKVDKDLQSLEDILHQVENKTSEVKQLIKAIQLTYNPDESSKPNMIDAATLKSRKMLEEIMKYEASILTHDSSIRYLQEIYNSNNQKIVNLKEKVAQLEAQCQEPCKDTVQIHDITGKDCQDIANKGAKQSGLYFIKPLKANQQFLVYCEIDGSGNGWTVFQKRLDGSVDFKKNWIQYKEGFGHLSPTGTTEFWLGNEKIHLISTQSAIPYALRVELEDWNGRTSTADYAMFKVGPEADKYRLTYAYFAGGDAGDAFDGFDFGDDPSDKFFTSHNGMQFSTWDNDNDKFEGNCAEQDGSGWWMNKCHAGHLNGVYYQGGTYSKASTPNGYDNGIIWATWKTRWYSMKKTTMKIIPFNRLTIGEGQQHHLGGAKQAGDV
modifications: Plasma-derived disulfide-linked hexamer (alpha-beta-gamma)2, fibrinopeptides A and B retained, N-glycosylated. Isoforms are not printed: the major plasma forms are taken by convention, i.e. the …

Columns and labels:
Settings in all cases: both partners purified
human vitronectin [1] = target: T1, human vitronectin (human, UniProt P04004 20-478); assay: ELISA; plates coated with 100 nM ECM protein in PBS (1 h, 37 °C), blocked with 1% BSA in PBS-T; PDGF-BB or IL-1Ra variants at increasing concentrations in PBS-T with 0.1% BSA, 1 h at room temperature; detected with biotinylated antibodies; one site specific binding model; n = 3
T1 construct: vitronectin, human; source: bought: Peprotech

human tenascin C [2] = target: T2, human tenascin C (human, UniProt P24821 23-2201); assay: as above
T2 construct: tenascin C, human; also called Tenacin C; source: bought: R&D Systems

human plasma fibronectin [3] = target: human plasma fibronectin (human); assay: as above
human fibrinogen [4] = target: B1; assay: as above
Target sequence in this assay (P02671 36-866): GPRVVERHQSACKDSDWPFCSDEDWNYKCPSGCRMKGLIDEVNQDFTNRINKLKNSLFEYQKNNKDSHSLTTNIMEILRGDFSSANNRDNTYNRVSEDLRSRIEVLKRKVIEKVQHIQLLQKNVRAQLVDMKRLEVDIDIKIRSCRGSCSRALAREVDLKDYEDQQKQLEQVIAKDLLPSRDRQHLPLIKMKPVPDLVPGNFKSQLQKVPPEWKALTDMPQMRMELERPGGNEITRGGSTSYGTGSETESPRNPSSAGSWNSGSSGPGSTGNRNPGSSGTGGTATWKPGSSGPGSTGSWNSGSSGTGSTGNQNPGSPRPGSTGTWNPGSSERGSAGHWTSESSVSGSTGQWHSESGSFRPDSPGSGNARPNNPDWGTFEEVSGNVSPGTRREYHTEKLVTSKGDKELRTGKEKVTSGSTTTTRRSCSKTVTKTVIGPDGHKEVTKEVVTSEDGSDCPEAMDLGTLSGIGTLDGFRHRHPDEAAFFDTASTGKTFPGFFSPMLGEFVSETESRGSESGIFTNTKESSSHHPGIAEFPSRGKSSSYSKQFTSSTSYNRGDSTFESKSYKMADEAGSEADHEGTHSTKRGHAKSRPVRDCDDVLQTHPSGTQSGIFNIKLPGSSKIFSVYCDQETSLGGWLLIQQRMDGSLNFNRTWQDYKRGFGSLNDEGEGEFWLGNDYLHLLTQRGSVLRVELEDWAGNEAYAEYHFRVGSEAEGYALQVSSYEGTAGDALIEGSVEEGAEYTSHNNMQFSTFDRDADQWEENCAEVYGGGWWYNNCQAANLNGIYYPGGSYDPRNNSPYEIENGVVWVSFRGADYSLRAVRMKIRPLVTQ

human vitronectin [5] = target: T1, human vitronectin; assay: ELISA; plates coated with 100 nM PlGF-2, AREG or NRTN (1 h, 37 °C), blocked with 1% BSA in PBS-T; ECM proteins at increasing concentration in PBS-T with 0.1% BSA; bound ECM protein detected with HRP-conjugated antibodies; one site specific binding model; n = 3
human tenascin C [6] = target: T2, human tenascin C; assay: as above
human plasma fibronectin [7] = target: human plasma fibronectin (human); assay: as above
human fibrinogen [8] = target: B1; assay: as above
AREG26-38/IL-1Ra = target: T3, AREG26-38/IL-1Ra (human | ); assay: ELISA; plates coated with 100 nM ECM protein in PBS (1 h, 37 °C), blocked with 1% BSA in PBS-T; PDGF-BB or IL-1Ra variants at increasing concentrations in PBS-T with 0.1% BSA, 1 h at room temperature; detected with biotinylated antibodies; one site specific binding model; n = 3
T3 construct: interleukin-1 receptor antagonist protein; Both the His tag and AREG26-38 are said to stand at the N-terminus; also called AREG126-138/IL-1Ra; engineered IL-1Ra; source: E. coli BL21 (DE3), pET-22b, soluble fraction, purified (Ni column)

AREG26-38/PDGF-BB = target: T4, AREG26-38/PDGF-BB (human | ); assay: as above
T4 construct: platelet-derived growth factor subunit B; AREG26-38 at the N-terminus of PDGF-B; also called AREG126-138/PDGF-BB; engineered PDGF-BB
T4 sequence (P02671 36-866): as above

T2 sequence (P24821 23-2201): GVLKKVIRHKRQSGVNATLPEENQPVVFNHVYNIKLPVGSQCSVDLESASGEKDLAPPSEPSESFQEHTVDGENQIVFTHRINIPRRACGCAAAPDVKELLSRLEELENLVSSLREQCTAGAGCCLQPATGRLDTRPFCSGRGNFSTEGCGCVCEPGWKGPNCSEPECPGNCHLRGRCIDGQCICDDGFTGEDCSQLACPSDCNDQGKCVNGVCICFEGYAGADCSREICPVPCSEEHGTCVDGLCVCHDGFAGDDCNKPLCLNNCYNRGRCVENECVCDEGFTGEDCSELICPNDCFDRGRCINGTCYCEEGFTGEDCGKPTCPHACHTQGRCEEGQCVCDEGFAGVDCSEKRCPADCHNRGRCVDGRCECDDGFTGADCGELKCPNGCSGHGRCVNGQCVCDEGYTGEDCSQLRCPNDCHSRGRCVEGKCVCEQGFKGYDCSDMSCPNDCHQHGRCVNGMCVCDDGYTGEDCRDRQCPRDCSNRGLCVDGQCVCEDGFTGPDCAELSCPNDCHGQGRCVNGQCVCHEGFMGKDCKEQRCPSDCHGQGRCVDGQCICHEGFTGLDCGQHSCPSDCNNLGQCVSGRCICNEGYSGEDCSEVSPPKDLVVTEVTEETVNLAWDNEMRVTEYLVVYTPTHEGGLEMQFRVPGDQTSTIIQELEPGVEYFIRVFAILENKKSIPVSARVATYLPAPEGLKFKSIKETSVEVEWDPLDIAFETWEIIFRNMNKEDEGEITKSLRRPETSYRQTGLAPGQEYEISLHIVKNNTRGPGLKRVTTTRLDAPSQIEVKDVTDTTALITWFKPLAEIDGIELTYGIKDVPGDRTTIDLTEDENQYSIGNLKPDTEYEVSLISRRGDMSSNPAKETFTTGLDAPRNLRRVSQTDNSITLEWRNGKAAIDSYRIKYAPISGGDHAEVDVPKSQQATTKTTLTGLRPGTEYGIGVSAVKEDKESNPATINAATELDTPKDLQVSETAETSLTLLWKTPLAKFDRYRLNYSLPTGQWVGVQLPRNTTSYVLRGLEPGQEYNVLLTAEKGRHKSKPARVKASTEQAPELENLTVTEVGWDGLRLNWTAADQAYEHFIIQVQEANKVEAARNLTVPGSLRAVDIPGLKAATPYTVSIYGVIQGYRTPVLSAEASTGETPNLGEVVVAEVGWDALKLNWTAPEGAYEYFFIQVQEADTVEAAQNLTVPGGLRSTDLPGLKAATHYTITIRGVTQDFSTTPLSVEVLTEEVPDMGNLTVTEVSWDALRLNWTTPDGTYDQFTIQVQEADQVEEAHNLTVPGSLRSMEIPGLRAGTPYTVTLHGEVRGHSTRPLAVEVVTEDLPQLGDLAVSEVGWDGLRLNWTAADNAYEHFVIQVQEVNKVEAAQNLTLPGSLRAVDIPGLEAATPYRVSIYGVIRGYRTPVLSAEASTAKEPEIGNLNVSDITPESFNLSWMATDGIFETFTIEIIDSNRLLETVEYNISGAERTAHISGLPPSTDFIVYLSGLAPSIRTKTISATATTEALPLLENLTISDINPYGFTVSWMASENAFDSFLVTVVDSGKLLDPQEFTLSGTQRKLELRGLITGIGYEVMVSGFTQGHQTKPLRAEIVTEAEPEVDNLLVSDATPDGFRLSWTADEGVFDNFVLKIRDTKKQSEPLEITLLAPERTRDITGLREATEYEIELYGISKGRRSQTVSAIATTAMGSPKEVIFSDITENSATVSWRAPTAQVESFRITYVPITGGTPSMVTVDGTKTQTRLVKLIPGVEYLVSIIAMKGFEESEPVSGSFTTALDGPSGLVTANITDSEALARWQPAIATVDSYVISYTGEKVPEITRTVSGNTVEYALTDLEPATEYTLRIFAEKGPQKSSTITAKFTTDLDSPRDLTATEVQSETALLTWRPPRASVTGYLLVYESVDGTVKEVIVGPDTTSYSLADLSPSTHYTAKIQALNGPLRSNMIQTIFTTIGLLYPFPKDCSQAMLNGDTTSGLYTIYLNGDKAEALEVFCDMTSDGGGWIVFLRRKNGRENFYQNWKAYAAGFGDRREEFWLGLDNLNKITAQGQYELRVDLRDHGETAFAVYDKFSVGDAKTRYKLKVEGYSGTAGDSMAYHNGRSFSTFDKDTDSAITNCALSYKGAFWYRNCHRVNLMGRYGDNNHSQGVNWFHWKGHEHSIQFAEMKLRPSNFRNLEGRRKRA
T1 sequence (P04004 20-478): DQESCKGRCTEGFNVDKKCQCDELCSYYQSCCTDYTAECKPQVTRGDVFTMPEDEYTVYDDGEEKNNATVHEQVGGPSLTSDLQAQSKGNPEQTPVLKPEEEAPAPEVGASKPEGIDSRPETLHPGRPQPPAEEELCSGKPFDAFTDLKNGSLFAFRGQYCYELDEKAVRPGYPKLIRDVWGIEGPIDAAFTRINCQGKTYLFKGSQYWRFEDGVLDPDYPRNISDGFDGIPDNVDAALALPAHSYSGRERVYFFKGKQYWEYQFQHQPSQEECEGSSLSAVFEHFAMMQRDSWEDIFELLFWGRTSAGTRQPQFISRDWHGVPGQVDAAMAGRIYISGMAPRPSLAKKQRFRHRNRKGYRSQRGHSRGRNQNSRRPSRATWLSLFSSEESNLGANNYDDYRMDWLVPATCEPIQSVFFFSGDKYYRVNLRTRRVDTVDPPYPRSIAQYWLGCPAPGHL
T3 sequence (P02671 36-866): as the sequence (P02671 36-866) above

Row | Binder | Kd (human vitronectin [1]) | Kd (human tenascin C [2]) | Kd (human plasma fibronectin [3]) | Kd (human fibrinogen [4]) | Kd (human vitronectin [5]) | Kd (human tenascin C [6]) | Kd (human plasma fibronectin [7]) | Kd (human fibrinogen [8]) | Kd (AREG26-38/IL-1Ra) | Kd (AREG26-38/PDGF-BB)
1 | interleukin-1 receptor antagonist (wild type) (natural protein, UniProt P25085 27-178, looked up, interleukin-1 receptor antagonist protein; also called IL-1Ra; source: bought: Peprotech) RPSGKRPCKMQAFRIWDTNQKTFYLRNNQLIAGYLQGPNIKLEEKIDMVPIDLHSVFLGIHGGKLCLSCAKSGDDIKLQLEEVNITDLSKNKEEDKRFTFIRSEKGPTTSFESAACPGWFLCTTLEADRPVSLTNTPEEPLIVTKFYFQEDQ | 96.5 nM | 137 nM | 153 nM | 640 nM | – | – | – | – | – | –
2 | amphiregulin (natural protein, human, UniProt P15514 101-187, looked up, amphiregulin; it is a soluble form, not the 252 aa precursor (surmise); also called AREG; source: bought: Peprotech (carrier-free recombinant)) SVRVEQVVKPPQNKTESENTSDKPKRKKKGGKNGKNRRNRKKKNPCNAEFQNFCIHGECKYIEHLEAVTCKCQQEYFGERCGEKSMK | – | – | – | – | 9.3 nM | 11 nM | 8.9 nM | 7.4 nM | – | –
3 | placenta growth factor-2 (natural protein, human, UniProt P49763-3 19-170, looked up, placenta growth factor, PlGF-2; also called PlGF; PlGF-2; source: bought: Peprotech (carrier-free recombinant)) LPAVPPQQWALSAGNGSSEVEVVPFQEVWGRSYCRALERLVDVVSEYPSEVEHMFSPSCVSLLRCTGCCGDENLHCVPVETANVTMQLLKIRSGDRPSYVELTFSQHVRCECRPLREKMKPERRRPKGRGKRRREKQRPTDCHLCGDAVPRR | – | – | – | – | 13.2 nM | 79.4 nM | 17.2 nM | 14.1 nM | – | –
4 | neurturin (natural protein, human, UniProt Q99748 96-197, looked up, neurturin; also called NRTN; source: bought: Peprotech (carrier-free recombinant)) ARLGARPCGLRELEVRVSELGLGYASDETVLFRYCAGACEAAARVYDLGLRRLRQRRRLRRERVRAQPCCRPTAYEDEVSFLDAHSRYHTVHELSARECACV | – | – | – | – | 53.1 nM | 55.7 nM | 79.4 nM | 390 nM | – | –
5 | platelet-derived growth factor-BB (wild type) (natural protein, UniProt P31240 82-190, looked up, platelet-derived growth factor subunit B; also called PDGF-BB; source: bought: Peprotech) SLGSLAAAEPAVIAECKTRTEVFQISRNLIDRTNANFLVWPPCVEVQRCSGCCNNRNVQCRASQVQMRPVQVRKIEIVRKKPIFKKATVTLEDHLACKCETIVTPRPVT | 29.7 nM | 87.8 nM | 74.2 nM | 210 nM | – | – | – | – | – | –
6 | B1 | – | – | – | – | – | – | – | – | 16.9 nM | 13.9 nM
